# Reference: US20210032313A1 (Daiichi Sankyo, published 2021)
# T1: human KLK5 (human, UniProt Q9Y337 67-293)
# T1 sequence: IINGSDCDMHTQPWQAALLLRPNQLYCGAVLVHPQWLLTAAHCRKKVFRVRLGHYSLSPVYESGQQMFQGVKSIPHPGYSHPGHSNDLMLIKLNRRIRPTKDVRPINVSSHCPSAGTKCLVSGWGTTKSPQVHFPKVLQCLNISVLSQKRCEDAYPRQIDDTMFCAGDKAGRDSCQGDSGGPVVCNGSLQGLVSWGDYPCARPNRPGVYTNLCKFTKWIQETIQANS
# T2: human KLK14 (human, UniProt Q9P0G3 25-251)
# T2 sequence: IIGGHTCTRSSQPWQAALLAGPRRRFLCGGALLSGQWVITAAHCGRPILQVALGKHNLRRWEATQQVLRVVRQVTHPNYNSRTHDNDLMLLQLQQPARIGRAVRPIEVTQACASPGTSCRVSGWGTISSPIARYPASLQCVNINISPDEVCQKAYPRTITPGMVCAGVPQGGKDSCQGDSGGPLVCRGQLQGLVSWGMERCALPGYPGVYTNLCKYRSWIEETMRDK
# T3: mouse KLK5 (mouse)
# T3 chain: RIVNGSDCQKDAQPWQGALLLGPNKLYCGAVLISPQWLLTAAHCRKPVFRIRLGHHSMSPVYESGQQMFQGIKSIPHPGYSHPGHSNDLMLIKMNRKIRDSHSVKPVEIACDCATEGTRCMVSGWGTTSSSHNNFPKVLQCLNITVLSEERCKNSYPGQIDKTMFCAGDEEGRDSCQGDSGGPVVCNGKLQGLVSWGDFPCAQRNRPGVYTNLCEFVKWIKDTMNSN
# T4: mouse KLK14 (mouse, UniProt Q8CGR5 24-250)
# T4 sequence: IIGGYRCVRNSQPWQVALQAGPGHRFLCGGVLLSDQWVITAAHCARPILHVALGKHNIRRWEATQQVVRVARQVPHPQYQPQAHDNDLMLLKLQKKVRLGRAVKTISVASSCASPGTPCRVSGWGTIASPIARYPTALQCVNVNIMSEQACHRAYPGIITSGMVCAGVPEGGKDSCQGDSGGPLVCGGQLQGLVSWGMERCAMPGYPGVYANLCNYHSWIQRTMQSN
# T5: KLK12 (human, UniProt Q9UKR0)
# T5 construct: commercial enzyme (R&D Systems, 3095-SE); 0.1 µg/mL in the assay; substrate Boc-Val-Pro-Arg-AMC 100 µM; also called Human KLK12; hKLK12
# T5 sequence (protease, looked up): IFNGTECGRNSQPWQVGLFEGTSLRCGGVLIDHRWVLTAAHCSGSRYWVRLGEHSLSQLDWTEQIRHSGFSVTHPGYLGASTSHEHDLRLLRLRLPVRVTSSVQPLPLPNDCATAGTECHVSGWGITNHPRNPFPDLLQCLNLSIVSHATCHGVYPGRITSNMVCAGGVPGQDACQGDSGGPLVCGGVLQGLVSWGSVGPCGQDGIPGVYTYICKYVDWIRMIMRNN
# B1: KLK5 inhibitory peptide K50098 (peptide)
# chain: GPQFGLFSKYRTPNCTSQTLGSCSREYDPVCGSDMSTYANECTLCMKIREGGHNIKIIRNGPCGG
# notes: SPINK2 mutant peptide made in E. coli
# B2: KLK5 inhibitory peptide K50032 (peptide)
# chain: GPQFGLFSKYRTPNCLNWTDHQCERDYDPVCGSDMSTYANECTLCMKIREGGHNIKIIRNGPCGG
# notes: as for B1
# B3: KLK5 inhibitory peptide K50016 (peptide)
# chain: GPQFGLFSKYRTPNCSQWQYSSCDRVYDPVCGSDMSTYANECTLCMKIREGGHNIKIIRNGPCGG
# notes: as for B1
# B4: KLK5 inhibitory peptide K51072 (peptide)
# chain: GPQFGLFSKYRTPNCQEDMTEYCARDFDPVCGSDMSTYANECTLCMKIREGGHNIKIIRNGPCGG
# notes: as for B1
# B5: KLK5/KLK7 inhibitory peptide K51028 (peptide)
# chain: GPQFGLFSKYRTPNCYQYRSKGCTHEYDPVCGSDMSTYANECTLCMKIREGGHNIKIIRNGPCGG
# notes: as for B1
# B6: KLK5 inhibitory peptide K50055 (peptide)
# chain: GPQFGLFSKYRTPNCANTMKQDCTREYDPVCGSDMSTYANECTLCMKIREGGHNIKIIRNGPCGG
# notes: as for B1
# B7: KLK5/KLK7 inhibitory peptide K51005 (peptide)
# chain: GPQFGLFSKYRTPNCMQHARQGCHYDYDPVCGSDMSTYANECTLCMKIREGGHNIKIIRNGPCGG
# notes: as for B1
# B8: KLK5 inhibitory peptide K51090 (peptide)
# chain: GPQFGLFSKYRTPNCDEIGKYGCGRSYDPVCGSDMSTYANECTLCMKIREGGHNIKIIRNGPCGG
# notes: as for B1
# What was measured:
# human KLK5 [1] = molecular target: T1, human KLK5; experiment: cell-based or functional assay
# human KLK14 = molecular target: T2, human KLK14; experiment: cell-based or functional assay
# mouse KLK5 = molecular target: T3, mouse KLK5; experiment: cell-based or functional assay
# mouse KLK7 = mouse KLK7 (mouse, UniProt Q91VE3 26-249); experiment: cell-based or functional assay
# Chain of mouse KLK7 (Q91VE3 26-249): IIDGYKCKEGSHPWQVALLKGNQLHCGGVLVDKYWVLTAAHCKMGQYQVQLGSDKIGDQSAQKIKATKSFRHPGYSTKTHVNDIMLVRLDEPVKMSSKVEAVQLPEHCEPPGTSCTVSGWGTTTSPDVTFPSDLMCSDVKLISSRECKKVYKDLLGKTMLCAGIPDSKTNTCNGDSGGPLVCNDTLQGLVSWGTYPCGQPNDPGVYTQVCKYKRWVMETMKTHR
# mouse KLK14 = molecular target: T4, mouse KLK14; experiment: cell-based or functional assay
# KLK4 = molecular target: T6, KLK4 (human, UniProt Q9Y5K2); experiment: fluorogenic peptide substrate cleavage, 1 µM inhibitor
# T6 construct: commercial enzyme (R&D Systems, 1719-SE); 1 µg/mL in the assay; substrate Boc-Val-Pro-Arg-AMC 100 µM; also called Human KLK4; hKLK4
# T6 sequence (Q9Y5K2 31-254 limits assumed): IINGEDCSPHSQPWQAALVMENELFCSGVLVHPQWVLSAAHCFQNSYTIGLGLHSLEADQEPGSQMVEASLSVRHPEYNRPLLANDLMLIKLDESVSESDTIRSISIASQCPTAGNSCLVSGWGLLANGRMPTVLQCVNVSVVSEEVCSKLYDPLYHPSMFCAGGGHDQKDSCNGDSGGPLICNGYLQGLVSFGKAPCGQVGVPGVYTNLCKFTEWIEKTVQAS
# Experimental: FIG. 3F includes graphs to evaluate the cross-reactivity of each inhibitory peptide with proteases, using the degradation of a peptide substrate as an index. For evaluating the Human KLK1 inhibitory activity, hKLK1 (R&D Systems, Inc., 2337-SE) with a final concentration of 0.1 μg/mL and a substrate peptide Pro-Phe-Arg-MCA (PEPTIDE […], INC., 3096-v) with a final concentration of 100 μM were used. For evaluating the Human KLK2 inhibitory activity, hKLK2 (R&D Systems, Inc., 4104-SE) with a final concentration of 2 μg/mL and a substrate peptide Pro-Phe-Arg-MCA (PEPTIDE […], INC., 3096-v) with a final concentration of 100 μM were used. For evaluating the Human KLK4 inhibitory activity, hKLK4 (R&D Systems, Inc., 1719-SE) with a final concentration of 1 μg/mL and a substrate peptide Boc-Val-Pro-Arg-AMC (R&D Systems, Inc., ES011) with a final concentration of 100 μM were used.
# (§1) The specificities for other proteases were evaluated using the degradation of a substrate peptide as an index. As in the method described in (3-1), 25 μL each of a protease and a sample diluted with an assay buffer were mixed (to a final concentration of sample of 1 μM), followed by a reaction at 37° C. for 20 minutes. Thereafter, 50 μL of a substrate diluted with an assay buffer was added thereto, and the fluorescence signal was measured using Enspire (PerkinElmer). An assay buffer (50 mM Tris, 150 mM NaCl, pH 8.0) was used for the evaluation of the protease activity, and a PROTEOSAVE® SS96F black plate (Sumitomo Bakelite Co., Ltd.) was used for the reaction and the measurement. The combinations of the protease and the substrate used for the evaluation of the specificity were as follows.
# KLK12 = molecular target: T5, KLK12; experiment: as above
# Experimental: FIG. 3G includes graphs to evaluate the cross-reactivity of each inhibitory peptide with proteases, using the degradation of a peptide substrate as an index. For evaluating the Human KLK7 inhibitory activity, hKLK7 with a final concentration of 1 μg/mL and a substrate peptide Mca-Arg-Pro-Lys-Pro-Val-Glu-Nval-Trp-Arg-Lys (Dnp)-NH₂ (R&D Systems, Inc., ES002) with a final concentration of 20 μM were used. For evaluating the Human KLK8 inhibitory activity, hKLK8 (UniProt: 060259, prepared by the inventors) with a final concentration of 5 nM and a substrate peptide Boc-Val-Pro-Arg-AMC (R&D Systems, Inc., ES011) with a final concentration of 100 μM were used. For evaluating the Human KLK12 inhibitory activity, hKLK12 (R&D Systems, Inc., 3095-SE) with a final concentration of 0.1 μg/mL and a substrate peptide Boc-Val-Pro-Arg-AMC (R&D Systems, Inc., ES011) with a final concentration of 100 μM were used.
# as §1
# human KLK5 [2] = molecular target: T1, human KLK5; experiment: SPR, BIAcore T200; biotinylated KLK5 captured on chip, peptide as analyte; single cycle kinetics, 1:1 model
# Experimental: In order to measure the binding affinity of the KLK5 inhibitory peptides, surface plasmon resonance analysis was conducted using BIAcore T 200 (GE healthcare). A complementary strand of DNA of a streptavidin conjugate was captured by hybridization on Sensor Chip CAP (GE healthcare) on which single-stranded DNA immobilized. Next, KLK5 biotinylated using EZ-Link NHS-PEG4-Biotin (Thermo Fisher Scientific) was captured at a flow rate of 10 μL/min to immobilize about 10 RU. Thereafter, the KLK5 inhibitory peptide, serially diluted 2-fold with HBS-EP (0.625 to 10 nM), was added thereto as an analyte at a flow rate of 30 μL/min. In the BIAcore T 200 Evaluation software (version 2.0), kon and koff were calculated by analysis using Single cycle kinetics in a simple one-to-one Langmuir binding model. The dissociation constant KD was calculated as a ratio of koff/kₒₙ. Further, multiple KLK5 inhibitory peptides were measured by regenerating Sensor Chip CAP using a Regeneration buffer attached to a Biotin CAPture Kit (GE healthcare) and repeatedly capturing biotinylated KLK5.
# human KLK7 = human KLK7 (human, UniProt P49862 30-253); experiment: cell-based or functional assay
# Chain of human KLK7 (P49862 30-253): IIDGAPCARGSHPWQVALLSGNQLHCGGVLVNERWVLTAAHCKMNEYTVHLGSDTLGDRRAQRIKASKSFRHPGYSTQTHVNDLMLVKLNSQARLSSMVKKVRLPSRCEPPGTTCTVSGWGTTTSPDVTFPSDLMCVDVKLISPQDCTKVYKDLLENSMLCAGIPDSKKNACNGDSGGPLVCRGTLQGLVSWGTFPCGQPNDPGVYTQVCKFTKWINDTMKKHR
# bChymotrypsin = experiment: fluorogenic peptide substrate cleavage, 1 µM inhibitor
# Experimental: FIG. 3A includes graphs to evaluate the cross-reactivity of each inhibitory peptide with proteases, using the degradation of a peptide substrate as an index. For evaluating the Bovine trypsin inhibitory activity, trypsin (Pierce, 20233) with a final concentration of 5 nM and a substrate peptide Boc-Val-Pro-Arg-AMC (R&D Systems, Inc., ES011) with a final concentration of 100 μM were used. For evaluating the Human trypsin inhibitory activity, trypsin (Sigma-Aldrich Co. LLC, T6424) with a final concentration of 1 nM and a substrate peptide Boc-Val-Pro-Arg-AMC (R&D Systems, Inc., ES011) with a final concentration of 100 μM were used. For evaluating the Bovine α-chymotrypsin inhibitory activity, chymotrypsin (Worthington Biochemical Corporation, LS001434) with a final concentration of 10 nM and a substrate peptide Suc-Leu-Leu-Val-Tyr-MCA (PEPTIDE […], INC., 3120-v) with a final concentration of 100 μM were used.
# as §1
binder,measurement,setting,value
B1,IC50(nM) for hKLK5,human KLK5 [1],8.3 nM
same,IC50(nM) for hKLK14,human KLK14,268 nM
same,IC50(nM) for mKLK5,mouse KLK5,14 nM
same,IC50(nM) for mKLK7,mouse KLK7,> 1000 nM
same,IC50(nM) for mKLK14,mouse KLK14,547 nM
same,binding result,KLK4,binds
same,binding result,KLK12,binds
same,Kd,human KLK5 [2],0.018 nM
same,koff,human KLK5 [2],1.8e-05 s⁻¹
same,kon,human KLK5 [2],1e+06 M⁻¹ s⁻¹
B2,IC50(nM) for hKLK5,human KLK5 [1],7.1 nM
same,IC50(nM) for mKLK5,mouse KLK5,127 nM
same,IC50(nM) for mKLK7,mouse KLK7,> 1000 nM
same,IC50(nM) for mKLK14,mouse KLK14,> 1000 nM
same,binding result,KLK12,binds
same,Kd,human KLK5 [2],0.13 nM
same,koff,human KLK5 [2],0.00027 s⁻¹
same,kon,human KLK5 [2],2e+06 M⁻¹ s⁻¹
B3,IC50(nM) for hKLK5,human KLK5 [1],6.9 nM
same,IC50(nM) for mKLK5,mouse KLK5,15 nM
same,IC50(nM) for mKLK7,mouse KLK7,> 1000 nM
same,IC50(nM) for mKLK14,mouse KLK14,> 1000 nM
same,binding result,KLK4,binds
same,Kd,human KLK5 [2],0.042 nM
same,koff,human KLK5 [2],0.00029 s⁻¹
same,kon,human KLK5 [2],7e+06 M⁻¹ s⁻¹
B4,IC50(nM) for hKLK5,human KLK5 [1],7 nM
same,IC50(nM) for hKLK14,human KLK14,434 nM
same,IC50(nM) for mKLK5,mouse KLK5,2 nM
same,IC50(nM) for mKLK7,mouse KLK7,512 nM
same,IC50(nM) for mKLK14,mouse KLK14,> 1000 nM
same,binding result,KLK4,binds
same,binding result,KLK12,binds
same,Kd,human KLK5 [2],0.026 nM
same,koff,human KLK5 [2],2.2e-05 s⁻¹
same,kon,human KLK5 [2],840000 M⁻¹ s⁻¹
B5,IC50(nM) for hKLK5,human KLK5 [1],6.1 nM
same,IC50(nM) for hKLK7,human KLK7,249 nM
same,IC50(nM) for mKLK5,mouse KLK5,< 0.5 nM
same,IC50(nM) for mKLK7,mouse KLK7,77 nM
same,IC50(nM) for mKLK14,mouse KLK14,> 1000 nM
same,Kd,human KLK5 [2],0.014 nM
same,koff,human KLK5 [2],2e-05 s⁻¹
same,kon,human KLK5 [2],1.5e+06 M⁻¹ s⁻¹
B6,IC50(nM) for hKLK5,human KLK5 [1],6.7 nM
same,IC50(nM) for hKLK14,human KLK14,> 1000 nM
same,IC50(nM) for mKLK5,mouse KLK5,< 0.5 nM
same,IC50(nM) for mKLK7,mouse KLK7,> 1000 nM
same,IC50(nM) for mKLK14,mouse KLK14,> 1000 nM
same,binding result,KLK4,binds
same,binding result,KLK12,binds
same,Kd,human KLK5 [2],0.019 nM
same,koff,human KLK5 [2],1.8e-05 s⁻¹
same,kon,human KLK5 [2],980000 M⁻¹ s⁻¹
B7,IC50(nM) for hKLK5,human KLK5 [1],5.8 nM
same,IC50(nM) for hKLK7,human KLK7,17 nM
same,IC50(nM) for mKLK5,mouse KLK5,48 nM
same,IC50(nM) for mKLK7,mouse KLK7,23 nM
same,IC50(nM) for mKLK14,mouse KLK14,214 nM
same,binding result,bChymotrypsin,binds
same,binding result,KLK4,binds
same,Kd,human KLK5 [2],0.34 nM
same,koff,human KLK5 [2],0.0012 s⁻¹
same,kon,human KLK5 [2],3.5e+06 M⁻¹ s⁻¹
B8,IC50(nM) for hKLK5,human KLK5 [1],4.5 nM
same,IC50(nM) for hKLK7,human KLK7,> 1000 nM
same,IC50(nM) for hKLK14,human KLK14,> 1000 nM
same,IC50(nM) for mKLK5,mouse KLK5,2 nM
same,IC50(nM) for mKLK7,mouse KLK7,658 nM
same,IC50(nM) for mKLK14,mouse KLK14,> 1000 nM
same,binding result,KLK4,binds
same,Kd,human KLK5 [2],0.027 nM
same,koff,human KLK5 [2],5.7e-05 s⁻¹
same,kon,human KLK5 [2],2.1e+06 M⁻¹ s⁻¹
